IC50 data for 12 molecules are collected here from patent US9115185.

The target of assay [1] is HLA-DR7 (DRB1*0701), purified from B-lymphoblastic cell line Pitout (human). The assay is described as follows: competition with fluorescent Ii 80-103 on purified HLA-DR7.
Assay [2] addresses HLA-DR1 (DRB*0101), purified from B-lymphoblastic cell line LG2.1 (human). The assay is described as follows: competition with fluorescent HA 308-319 on purified HLA-DR1.
The target of assay [3] is T1, HLA-DR3 (DRB*0301), purified from B-lymphoblastic cell line HAR (human).
T1 chain: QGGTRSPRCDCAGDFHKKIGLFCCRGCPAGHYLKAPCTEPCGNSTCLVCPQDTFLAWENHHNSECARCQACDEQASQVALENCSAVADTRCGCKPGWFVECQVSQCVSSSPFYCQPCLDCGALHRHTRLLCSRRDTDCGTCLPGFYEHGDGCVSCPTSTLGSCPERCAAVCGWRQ
The experiment in a line: competition with fluorescent hsp65 3-13 on purified HLA-DR3.

For assay [4], the target named is HLA-DR2 (DRB1*0201 [sic]), purified from B-lymphoblastic cell line IWB (human). The experiment in a line: competition with fluorescent HA 308-319 on purified HLA-DR2.
The target in assay [5] is HLA-DR4 (DRB*0401), purified from B-lymphoblastic cell line BSM (human). The assay is described as follows: competition with fluorescent HA308-319 Y→F on purified HLA-DR4.

Take HYNIVTFCCKCDSTLRLCVQST (modifications not checked) [HPV16 E7 peptide 51-72, P03129 51-72]: the IC50 (commonly the point on the concentration scale where inhibition reaches its midpoint) in assay [1] was 11 µM; in assay [2], 70 µM; in assay [3] it was 50 µM.
As for DLYCYEQLNDSSEEEDEIDGPA (modifications not checked) [HPV16 E7 peptide 21-42, P03129 21-42], the IC50 in assay [4] was 12 µM.
Turning to AIVTLTYDSEWQRDQFLSQVKIPKTITVSTGFMSI (modifications not checked) [HPV16 E2 peptide 331-365], the IC50 in assay [5] turned out to be 15 µM; in assay [3], 10 µM.
In assay [3], YMLDLQPETTDLYCYEQLNDSS (modifications not checked) [HPV16 E7 peptide 11-32, P03129 11-32] came in with an IC50 of 50 µM.
For the molecule MHGDTPTLHEYMLDLQPETTDL (modifications not checked) [HPV16 E7 peptide 1-22, P03129 1-22], the IC50 in assay [1] came out at 7 µM; in assay [4], 10 µM; in assay [5], 30 µM; in assay [3], 0.8 µM.
In assay [5], LRYRFKKHCTLYTAVSSTWHWTGHNVKHKS (modifications not checked) [HPV16 E2 peptide 301-330] came in with an IC50 of 10 µM.
Turning to PAGQAEPDRAHYNIVTFCCKCD (modifications not checked) [HPV16 E7 peptide 41-62, P03129 41-62], the IC50 in assay [4] was 50 µM; in assay [5], 38 µM; in assay [2] it was 7.4 µM; in assay [3], 55 µM.
For STHVDIRTLEDLLMGTLGIVCP (modifications not checked) [HPV16 E7 peptide 71-92, P03129 71-92], the values for the IC50 in assay [4] and in assay [2] were 2 µM and 12 µM, respectively.
SSTWHWTGHNVKHKSAIVTLTYDSEWQRDQ (modifications not checked) [HPV16 E2 peptide 316-345]: the IC50 in assay [3] was determined as 30 µM. That is a double-digit micromolar value.
As for CDSTLRLCVQSTHVDIRTLEDL (modifications not checked) [HPV16 E7 peptide 61-82, P03129 61-82], the figures for the IC50 in assay [4] and in assay [3] were 15 µM and 65 µM, respectively.
As for RTLEDLLMGTLGIVCPICSQKP (modifications not checked) [HPV16 E7 peptide 77-98, P03129 77-98], the IC50 in assay [1] came out at 0.9 µM; in assay [4], 22 µM; in assay [2], 46 µM.
FNSSHKGRINCNSNTTPIVHLKGDANTLKC (modifications not checked) [HPV16 E2 peptide 271-300] registered an IC50 in assay [3] of 37 µM.
